Experimental data taken from patent US20250049939A1, “NOVEL FLT3 ANTIBODIES AND ANTIBODY-DRUG-CONJUGATES BASED THEREON, THERAPEUTIC METHODS AND USES THEREOF IN COMBINATION WITH TYROSINE KINASE INHIBITORS” (TUBULIS GmbH, priority 2021, published 2025).

Experiments:
[1] = test system: FLT3 positive human cell lines; assay: Cytotoxicity in leukemia and lymphoma cell lines, 96 h resazurin; type: cell-based; conditions: FLT3 positive and negative cell lines
Source text: (A) Correlation of MFI of CD64 cell surface expression and MFI of FLT3 cell surface expression of myeloid human cell lines measure in flow cytometry. Expression data presented in Supplementary FIGS. 4A and B. Black line indicates simple linear regression with error interval. r=Pearson correlation coefficient; r^2=Coefficient of determination; p=p value from two tailed test with confidence interval of 95%. MFI=mean fluorescence intensity. (B,C,E,F) Assessment of cytotoxicity of ADCs in different human cell lines. Viability was determined after 96h treatment with different concentrations of ADCs by resazurin fluorescence and normalized to untreated control. Dashed line indicates 100 ng/ml drug concentration. Mean±s.d. of n=3 biological replicates. […] Black line indicates simple linear regression with error interval. (E) Treatment of FLT3 positive human cell lines with IgG1-ADC.

human CD64 = target: T1, human CD64 (Homo sapiens, UniProt P12314); assay: Cell surface binding to Ba/F3 human CD64, flow cytometry
T1 construct: host or cells: Ba/F3 cells, retrovirally transduced with MSCV-IRES-YFP (pMIY) vector
Experimental: For antibody binding studies, cells were stained on ice with primary mouse, rat or human anti-FLT3 antibodies (in house) and secondary antibody Goat F(ab′)2 Anti-Human Ig-PE (2012-09), Goat Anti-Mouse IgG (H+L)-PE (1032-09) or Goat Anti-Rat IgG (H+L)-PE (3052-09) purchased from Southern Biotech. For internalization experiments, cells incubated with anti-FLT3 antibodies were washed and incubated for 30 min at 4° C. or 37° C. followed by staining with secondary antibody.
Murine FLT3 (OMu21985D, Genescript), human CD64 (RC207487), CD32 (RC205786) and CD16 (RC206429), were purchased from Origene. Cynomolgues monkey FLT3 gene was synthesized from XM_015439107.1 by Eurofins. The constructs were cloned into retroviral expression vector MSCV-IRES-YFP (pMIY) using the In-Fusion HD Cloning Plus Kit (Takara Bio, Saint-Germain-en-Laye, France). All FLT3 point mutations were generated using the QuikChange II XL Site-Directed Mutagenesis Kit (Agilent Technologies, Santa Clara, CA, USA) and correct sequence was confirmed by Sanger sequencing. […]
For FLT3 expression analysis, cells were stained on ice with primary mouse anti-FLT3-AF647 antibodies for 30 min. […] Binding and expression were subsequently measured at the flow cytometer (BD FACSCanto II) and the results were evaluated with FlowJo version 10.8.1.

T1 sequence (P12314 16-374): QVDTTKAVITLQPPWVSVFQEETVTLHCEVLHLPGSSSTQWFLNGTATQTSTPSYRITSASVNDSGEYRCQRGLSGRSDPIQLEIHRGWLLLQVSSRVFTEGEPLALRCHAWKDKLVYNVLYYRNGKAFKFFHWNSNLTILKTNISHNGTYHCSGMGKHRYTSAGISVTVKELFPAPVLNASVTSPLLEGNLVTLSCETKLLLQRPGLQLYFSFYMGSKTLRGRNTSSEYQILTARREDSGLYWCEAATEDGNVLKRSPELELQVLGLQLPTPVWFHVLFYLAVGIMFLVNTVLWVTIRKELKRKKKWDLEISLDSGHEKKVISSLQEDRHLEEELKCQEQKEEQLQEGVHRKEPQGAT

Binding to Fc receptor CD64 via the IgG1 backbone (human CD64): verified the binding
B1: 20D9: chimeric (rat variable regions, human IgG1) anti-FLT3 monoclonal antibody; VH SEQ ID NO: 5, VL SEQ ID NO: 6 (antibody, V domains shown)
VH: DVMLVESGGGLVQPGRSLKLSCVASGFTFNNYWMTWIRQAPGKGLEWIASITKTGGGTYYPDSVKGRFTISRDNAKSTLYLQMNSLRSEDTATYYCTTLQQLGVMDAWGQGASVTVSSA
VL: DVQMTQSPSVLSASVGDRITLNCKASQNINKELNWYQQKLGEAPKLLIYNTNNLQTGIPSRFSGSGSGTDYTLTISSLQPEDVATYFCFQHKSWPLTFGSGTKLEIKR
modifications: Clone 20D9, heavy chain variable region without a signal seqeunce; Clone 20D9, light chain variable region without a signal seqeunce
Effect of unconjugated antibody on cell proliferation [1]: did not impair cell proliferation
